In patent publication US20180057596A1:
Like-named read-outs stand apart in the source and are kept apart here. Blank lines part the entries; values can stand above or below the binder they belong to.

Legend:
[1] = molecular target: antibody tested in the epitope mapping of Example 5; assay: HTRF competition, test protein against biotinylated human IL-4Rα/Fc for cryptate labelled antibody
[2] = molecular target: antibody tested in the epitope mapping of Example 5; assay: as above; remark: listed apart in the source
[3] = molecular target: antibody tested in the epitope mapping of Example 5; assay: HTRF competition
[4] = molecular target: antibody tested in the epitope mapping of Example 5; assay: HTRF competition, test protein against biotinylated human IL-4Rα/Fc for cryptate labelled antibody; remark: listed apart in the source

B2: EM01 (receptor)
chain: MKVLQEPTCVSDYMSISTCEWKMNGPTNCSTELRLLYQLVFLLSEAHTCIPENNGGAGCVCHLEMDDVVSADNYTLDLWAGQQLLWKGSFKPSEHVKPRAPGNLTVHTNVSDTLLLTWSNPYPPDNYLYNHLTYAVNIWSENDPADFRIYNVTYLEPSLRIAASTLKSGISYRARVRAWAQCYNTTWSEWSPSTKWHNSYREPFNPAFLYKVVGAADYKDDDDKAAHHHHHHHHHH
IC50 [2]: 0.71 nM

B3: EM04 (receptor)
chain: MKVLQEPTCVSDYMSISTCEWKMNGPTNCSTELRLLYQLVFLLSEAHTCIPENNGGAGCVCHLLMDDPVSADNYTLDLWAGQQLLWKGSFKPSEHVKPRAPGNLTVHTNVSDTLLLTWSNPYPPDNYLYNHLTYAVNIWSENDPADFRIYNVTYLEPSLRIAASTLKSGISYRARVRAWAQCYNTTWSEWSPSTKWHNSYREPFNPAFLYKVVGAADYKDDDDKAAHHHHHHHHHH
IC50 [2]: 15 nM
fold higher IC50 than human IL-4Rα [3]: 20 fold

B4: EM03 (receptor)
chain: MKVLQEPTCVSDYMSISTCEWKMNGPTNCSTELRLLYQLVFLLSEAHTCIPENNGGAGCVCHLLMDRVVSADNYTLDLWAGQQLLWKGSFKPSEHVKPRAPGNLTVHTNVSDTLLLTWSNPYPPDNYLYNHLTYAVNIWSENDPADFRIYNVTYLEPSLRIAASTLKSGISYRARVRAWAQCYNTTWSEWSPSTKWHNSYREPFNPAFLYKVVGAADYKDDDDKAAHHHHHHHHHH
% inhibition at the highest concentration (1000 nM) [2]: 29%

B5: EM06 (receptor)
chain: MKVLQEPTCVSDYMSISTCEWKMNGPTNCSTELRLLYQLVFLLSEAHTCIPENNGGAGCVCHLLMDDVVSSDNYTLDLWAGQQLLWKGSFKPSEHVKPRAPGNLTVHTNVSDTLLLTWSNPYPPDNYLYNHLTYAVNIWSENDPADFRIYNVTYLEPSLRIAASTLKSGISYRARVRAWAQCYNTTWSEWSPSTKWHNSYREPFNPAFLYKVVGAADYKDDDDKAAHHHHHHHHHH
IC50 [2]: 3.25 nM

B6: EM05 (receptor)
chain: MKVLQEPTCVSDYMSISTCEWKMNGPTNCSTELRLLYQLVFLLSEAHTCIPENNGGAGCVCHLLMDDVVQADNYTLDLWAGQQLLWKGSFKPSEHVKPRAPGNLTVHTNVSDTLLLTWSNPYPPDNYLYNHLTYAVNIWSENDPADFRIYNVTYLEPSLRIAASTLKSGISYRARVRAWAQCYNTTWSEWSPSTKWHNSYREPFNPAFLYKVVGAADYKDDDDKAAHHHHHHHHHH
IC50 [2]: 1.65 nM

B7: EM02 (receptor)
chain: MKVLQEPTCVSDYMSISTCEWKMNGPTNCSTELRLLYQLVFLLSEAHTCIPENNGGAGCVCHLLMNDVVSADNYTLDLWAGQQLLWKGSFKPSEHVKPRAPGNLTVHTNVSDTLLLTWSNPYPPDNYLYNHLTYAVNIWSENDPADFRIYNVTYLEPSLRIAASTLKSGISYRARVRAWAQCYNTTWSEWSPSTKWHNSYREPFNPAFLYKVVGAADYKDDDDKAAHHHHHHHHHH
IC50 [2]: 2.25 nM

B8: EM07 (receptor)
chain: MKVLQEPTCVSDYMSISTCEWKMNGPTNCSTELRLLYQLVFLLSEAHTCIPENNGGAGCVCHLLMDDVVSADRYTLDLWAGQQLLWKGSFKPSEHVKPRAPGNLTVHTNVSDTLLLTWSNPYPPDNYLYNHLTYAVNIWSENDPADFRIYNVTYLEPSLRIAASTLKSGISYRARVRAWAQCYNTTWSEWSPSTKWHNSYREPFNPAFLYKVVGAADYKDDDDKAAHHHHHHHHHH
IC50 [2]: 1.41 nM

B11: AllMoLoopsHuIL-4Rα (receptor)
chain: MKVLQEPTCVSDYIRTSTCEWKMNGPTNCSTELRLLYQLMFFEFSENLTCIPENNGGAGCVCHLEMNRPVQSDRYTLDLWAGQQLLWKGSFKPSEHVKPRAPGNLTVHTNVSDTLLLTWNNLYPSNNYLYNHLTYAVNIWSENDPADFRIYNVTYLEPSLRIAASTLKSGISYRARVRAWSQILTGTWSEWSPSTKWHNSYREPFDYKDDDDKAAHHHHHHHHHH
% inhibition at the highest concentration (1000 nM) [1]: 41%

B14: EM18 (receptor)
chain: MKVLQEPTCVSDYMSISTCEWKMNGPTNCSTELRLLYQLVFFEFSENLTCIPENNGGAGCVCHLLMDDVVSADNYTLDLWAGQQLLWKGSFKPSEHVKPRAPGNLTVHTNVSDTLLLTWSNPYPPDNYLYNHLTYAVNIWSENDPADFRIYNVTYLEPSLRIAASTLKSGISYRARVRAWAQCYNTTWSEWSPSTKWHNSYREPFDYKDDDDKAAHHHHHHHHHH
IC50 [4]: 20 nM

Next, values leading:

% inhibition at the highest concentration (1000 nM) [1]: 45%
B1: MoIL-4Rα (receptor)
chain: IKVLGEPTCFSDYIRTSTCEWFLDSAVDCSSQLCLHYRLMFFEFSENLTCIPRNSASTVCVCHMEMNRPVQSDRYQMELWAEHRQLWQGSFSPSGNVKPLAPDNLTLHTNVSDEWLLTWNNLYPSNNLLYKDLISMVNISREDNPAEFIVYNVTYKEPRLSFPINILMSGVYYTARVRVRSQILTGTWSEWSPSITWYNHFQLPLNPAFLYKVVGAADYKDDDDKAAHHHHHHHHHH

% inhibition at the highest concentration (1000 nM) [1]: 34%
B9: MoD1HuD2IL-4Rα (receptor)
chain: IKVLGEPTCFSDYIRTSTCEWFLDSAVDCSSQLCLHYRLMFFEFSENLTCIPRNSASTVCVCHMEMNRPVQSDRYQMELWAEHRQLWQGSFSPSGHVKPRAPGNLTVHTNVSDTLLLTWSNPYPPDNYLYNHLTYAVNIWSENDPADFRIYNVTYLEPSLRIAASTLKSGISYRARVRAWAQCYNTTWSEWSPSTKWHNSYREPFDYKDDDDKAAHHHHHHHHHH

% inhibition at the highest concentration (1000 nM) [1]: 58%
% inhibition at the highest concentration (1000 nM) [2]: 45%
B10: MoLoop3HuIL-4Rα (receptor)
chain: MKVLQEPTCVSDYMSISTCEWKMNGPTNCSTELRLLYQLVFLLSEAHTCIPENNGGAGCVCHLEMNRPVQSDRYTLDLWAGQQLLWKGSFKPSEHVKPRAPGNLTVHTNVSDTLLLTWSNPYPPDNYLYNHLTYAVNIWSENDPADFRIYNVTYLEPSLRIAASTLKSGISYRARVRAWAQCYNTTWSEWSPSTKWHNSYREPFDYKDDDDKAAHHHHHHHHHH

IC50 [1]: 3.4 nM
B12: HuD1MoD2IL-4Rα (receptor)
chain: MKVLQEPTCVSDYMSISTCEWKMNGPTNCSTELRLLYQLVFLLSEAHTCIPENNGGAGCVCHLLMDDVVSADNYTLDLWAGQQLLWKGSFKPSENVKPLAPDNLTLHTNVSDEWLLTWNNLYPSNNLLYKDLISMVNISREDNPAEFIVYNVTYKEPRLSFPINILMSGVYYTARVRVRSQILTGTWSEWSPSITWYNHFQLPLDYKDDDDKAAHHHHHHHHHH

IC50 [4]: 25 nM
IC50 [1]: 23 nM
fold higher IC50 than human IL-4Rα [3]: 100 fold
B13: MoLoop2HuIL-4Rα (receptor)
chain: MKVLQEPTCVSDYMSISTCEWKMNGPTNCSTELRLLYQLMFFEFSENLTCIPENNGGAGCVCHLLMDDVVSADNYTLDLWAGQQLLWKGSFKPSEHVKPRAPGNLTVHTNVSDTLLLTWSNPYPPDNYLYNHLTYAVNIWSENDPADFRIYNVTYLEPSLRIAASTLKSGISYRARVRAWAQCYNTTWSEWSPSTKWHNSYREPFDYKDDDDKAAHHHHHHHHHH

IC50 [4]: 56 nM
B15: EM23 (receptor)
chain: MKVLQEPTCVSDYMSISTCEWKMNGPTNCSTELRLLYQLMFFEFSENHTCIPENNGGAGCVCHLLMDDVVSADNYTLDLWAGQQLLWKGSFKPSEHVKPRAPGNLTVHTNVSDTLLLTWSNPYPPDNYLYNHLTYAVNIWSENDPADFRIYNVTYLEPSLRIAASTLKSGISYRARVRAWAQCYNTTWSEWSPSTKWHNSYREPFDYKDDDDKAAHHHHHHHHHH
